From PMC12748787 (Communications Biology, 2025) come the findings set out here.

Residue numbers refer to the chain shown, from its start. Names and notes keep the numbering of the source.

T1: MBP-Mus_JPH3 NT WT (mouse, UniProt Q9ET77 1-446)
T1 sequence (looked up): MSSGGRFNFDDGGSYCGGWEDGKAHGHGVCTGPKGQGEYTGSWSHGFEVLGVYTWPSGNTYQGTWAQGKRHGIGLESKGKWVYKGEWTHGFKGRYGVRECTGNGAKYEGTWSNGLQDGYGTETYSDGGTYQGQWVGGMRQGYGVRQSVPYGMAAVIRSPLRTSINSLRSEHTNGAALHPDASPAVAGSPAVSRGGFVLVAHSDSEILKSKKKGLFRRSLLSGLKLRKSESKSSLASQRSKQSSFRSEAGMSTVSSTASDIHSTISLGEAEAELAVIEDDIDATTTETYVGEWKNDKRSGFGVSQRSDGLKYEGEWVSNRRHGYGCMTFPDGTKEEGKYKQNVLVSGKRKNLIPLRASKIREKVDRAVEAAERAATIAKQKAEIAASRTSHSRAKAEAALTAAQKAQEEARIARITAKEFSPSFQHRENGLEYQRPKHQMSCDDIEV

T2: MBP-JPH2 MORN-Helix (mouse, UniProt Q9ET78 1-440, Δ176-273)
T2 sequence (looked up): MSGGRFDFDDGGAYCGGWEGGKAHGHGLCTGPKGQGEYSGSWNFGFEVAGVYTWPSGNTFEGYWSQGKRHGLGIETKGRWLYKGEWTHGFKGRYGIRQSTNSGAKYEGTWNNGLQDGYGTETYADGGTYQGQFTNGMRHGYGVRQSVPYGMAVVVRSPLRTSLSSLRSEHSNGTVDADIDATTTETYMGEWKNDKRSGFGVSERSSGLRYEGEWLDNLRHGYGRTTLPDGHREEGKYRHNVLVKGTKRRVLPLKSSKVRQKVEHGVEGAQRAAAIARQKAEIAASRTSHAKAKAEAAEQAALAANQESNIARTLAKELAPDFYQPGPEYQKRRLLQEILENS

T3: MBP-Mus_JPH1 NT WT (mouse, UniProt Q9ET80 1-436)
T3 sequence (looked up): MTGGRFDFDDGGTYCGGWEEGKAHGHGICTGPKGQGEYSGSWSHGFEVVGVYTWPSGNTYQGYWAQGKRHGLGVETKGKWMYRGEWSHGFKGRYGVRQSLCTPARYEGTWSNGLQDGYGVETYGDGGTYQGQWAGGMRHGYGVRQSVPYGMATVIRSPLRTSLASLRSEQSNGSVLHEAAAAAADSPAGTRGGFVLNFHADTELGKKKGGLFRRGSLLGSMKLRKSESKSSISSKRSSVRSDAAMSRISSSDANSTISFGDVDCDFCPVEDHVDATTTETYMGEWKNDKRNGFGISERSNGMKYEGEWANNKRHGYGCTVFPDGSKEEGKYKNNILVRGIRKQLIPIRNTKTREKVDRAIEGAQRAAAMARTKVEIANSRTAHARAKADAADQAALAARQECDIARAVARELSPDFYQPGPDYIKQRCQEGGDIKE

T4: MBP-JPH2 NT (mouse, wild type) (mouse, UniProt Q9ET78 1-440)
T4 sequence (looked up): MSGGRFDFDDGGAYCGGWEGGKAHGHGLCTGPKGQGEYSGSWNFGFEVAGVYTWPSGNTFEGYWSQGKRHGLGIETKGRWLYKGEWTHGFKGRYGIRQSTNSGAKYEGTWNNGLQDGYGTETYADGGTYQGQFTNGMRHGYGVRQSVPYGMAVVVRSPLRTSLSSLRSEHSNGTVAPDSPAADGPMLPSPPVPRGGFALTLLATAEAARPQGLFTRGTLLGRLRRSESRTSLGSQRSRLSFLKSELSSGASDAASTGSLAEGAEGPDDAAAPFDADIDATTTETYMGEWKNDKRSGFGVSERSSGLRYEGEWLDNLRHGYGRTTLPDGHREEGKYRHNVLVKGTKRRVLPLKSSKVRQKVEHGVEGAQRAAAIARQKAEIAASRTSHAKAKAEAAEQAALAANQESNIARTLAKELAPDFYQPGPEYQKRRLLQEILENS

T5: JPH2 MORN-Helix (as used in SEC-MALS) (mouse, UniProt Q9ET78 1-440, Δ176-273)
T5 sequence (looked up): T2 sequence (looked up)

B1: JPH2 NT S165I (domain or fragment, mouse, UniProt Q9ET78 1-440, looked up)
chain: T4 sequence (looked up) with S165I
B2: JPH2 NT (mouse, wild type, as used in SEC-MALS) (domain or fragment, UniProt Q9ET78 1-440, looked up)
chain: T4 sequence (looked up)
B3: JPH2 NT S165L (domain or fragment, mouse, UniProt Q9ET78 1-440, looked up)
chain: T4 sequence (looked up) with S165L
B4: MBP-JPH2 NT S165Y (domain or fragment, mouse, UniProt Q9ET78 1-440, looked up)
chain: T4 sequence (looked up) with S165Y
B5: Trx-CaV1.2 JBM (domain or fragment)
chain: not shown
B6: CaV1.2 JBM (as used in SEC and SEC-MALS) (domain or fragment)
chain: not shown

The target of assay [1] is B5. Put plainly: ITC. For orientation: In ITC the heat of successive injections is recorded.
Assay [2] concerns the target B6. Put plainly: SEC-MALS.
Assay [3] has as its target T1, MBP-Mus_JPH3 NT WT. Put plainly: ITC.
The target of assay [4] is T2, MBP-JPH2 MORN-Helix. Briefly: ITC.
The target in assay [5] is T3, MBP-Mus_JPH1 NT WT. Put plainly: ITC.
The target in assay [6] is T4, MBP-JPH2 NT (mouse, wild type). Put plainly: ITC.
Assay [7] addresses T5, JPH2 MORN-Helix (as used in SEC-MALS). Briefly: SEC-MALS.

For orientation: stoichiometry N means a count of units in the complex or per binding partner. A word on the Kd: it is the equilibrium constant for the complex coming apart. Lower therefore signals a tighter complex.

As for B1, the “fold decrease in affinity against the wild type” value in assay [1] stood at 2 fold.

B2: the “stoichiometry N” value in assay [2] was 1.

Take B3: in assay [1], the “fold decrease in affinity against the wild type” value was 2 fold.

For B4, the “fold weakening of the binding against the wild type” value in assay [1] is roughly 3 fold.

Consider B5, for which the values for the Kd in assay [3], in assay [5] and in assay [6] were 5.82 ± 0.36 µM, 5.54 ± 0.71 µM and roughly 6.04 µM, respectively. Also, the binding result in assay [4] is on record as “binds”.

Regarding B6, in assay [7], the binding result is given as “binds”.
